Test results published in paper PMC10269165 (Antimicrobial Agents and Chemotherapy, 2023).

What was measured:
OdPMT = OdPMT (Oesophagostomum dentatum, UniProt A0A0B1TAL6); assay: PMT enzyme kinetics, fluorescence methyltransferase assay; format: biochemical; settings: on phosphoethanolamine
Procedure: (§1) We customized a commercial methyltransferase HT activity assay kit (ENZO) for use of recombinant PMT proteins as enzymes, S-adenosyl-L-methionine (SAM) as the methyl donor, and PE as the substrate, as reported previously ([27]). […] Briefly, the reaction mixture contained 2.5 μL of the kit SAM-free methyltransferase reaction buffer, 3 μL of 10 mM PE solution (pH 7.5), 15 μL of 1 mM SAM solution (pH 7.8), and 1× transferase assay buffer to a final volume of 25 μL. Various concentrations (25-μL total volume) of recombinant PMT protein were added to reactions.
(§2) To determine the enzyme kinetic parameters on SAM, fixed concentrations of PMT recombinant proteins (between 15 and 100 ng/μL, depending on the derived optimal concentration) and PE (200 μM) were used in the reactions, with various concentrations of SAM (0 to 160 μM). On the other hand, to determine the enzyme kinetic parameters on PE, fixed concentrations of PMT recombinant proteins (between 15 and 100 ng/μL, depending on the derived optimal concentration) and SAM (100 μM) were used, with various concentrations of PE (0 to 250 μM).
(§3) For normalization, instead of purified protein, 25 μL of 100 μM S-(5′-adenosyl)-L-homocysteine (SAH) as a positive control, 25 μL of dialysis buffer as a negative control, and 25 μL of 1× transferase assay buffer as a blank control were added to the respective reaction mixtures. The reactions were prepared in triplicate wells using black flat-bottomed 96-well plates. Detection buffer (100 μL) was added into each reaction, yielding a final reaction volume of 150 μL. The plates were covered in aluminum foil and incubated at room temperature with shaking for 30 min, and fluorescence read at 380EX/520EM using a SpectraMax Gemini EM microplate reader (Molecular Devices). Sample readouts were normalized with positive and negative controls.

AsPMT = AsPMT (Ascaris suum, UniProt F1L4B9); assay: as above; format: biochemical; settings: on phosphoethanolamine
Procedure: as §1, §2, §3

TcPMT = TcPMT (Toxocara canis, UniProt A0A0B2VTW9); assay: as above; format: biochemical; settings: on phosphoethanolamine
Procedure: as §1, §2, §3

DvPMT1 = DvPMT1 (Dictyocaulus viviparus, UniProt A0A0D8Y714); assay: as above; format: biochemical; settings: on phosphoethanolamine
Procedure: as §1, §2, §3

AcPMT1 = AcPMT1 (Ancylostoma duodenale, UniProt A0A0C2DEB6); assay: as above; format: biochemical; settings: on phosphoethanolamine
Procedure: as §1, §2, §3

HcPMT1 = HcPMT1 (Haemonchus contortus, UniProt U5HK46); assay: as above; format: biochemical; settings: on phosphoethanolamine
Procedure: as §1, §2, §3

[1] = system: PMT-complemented mutant yeast; assay: Growth inhibition of complemented yeast (statement on PMT-complemented strains together); format: cell-based, Saccharomyces cerevisiae; settings: various concentrations
Procedure: (§4) To determine the effect of PMT inhibitors on the growth of PMT- and LacZ-complemented pem1Δpem2Δ S. cerevisiae, the yeast cells were first starved of choline as described above, and the cells were diluted to an OD600 of ~0.6. The PMT-complemented yeast cells were cultured in SG medium (3.4g/L yeast nitrogen base without amino acids, 2% galactose, 30 mg/L histidine, 100 mg/L leucine, 100 mg/L adenine, and 50 mg/L tryptophan) supplemented with 1 mM ethanolamine hydrochloride, while the LacZ-complemented yeast cells were cultured in SG medium supplemented with 1 mM choline chloride. Compounds that depicted cross-inhibitory activity against PMT proteins in vitro were added at various concentrations to the cultures. As a negative control, DMSO (at a final concentration not exceeding 2% [vol/vol]) was added to yeast cultures designated control cultures. The cultures were incubated at 30°C with shaking at 275 rpm for 4 days. On a daily basis during the course of culture, 200-μL portions of culture aliquots were taken, and their OD600s were measured using a microplate reader. In preliminary work, we had observed that the growth of PMT- and LacZ-complemented pem1Δpem2Δ S. cerevisiae plateaued at 3 to 4 days of culture. Therefore, to determine the inhibitory effect of nematode PMT inhibitors on the growth of PMT- and LacZ-complemented pem1Δpem2Δ S. cerevisiae, measurements taken on day 3 were used. The results were presented as percentage of growth rate using the following formula: PGR = growth rate (plus inhibitor)/growth rate (minus inhibitor) × 100 where the percent growth rate (PGR) is the growth rate of inhibitor-treated PMT- or LacZ- complemented Pem1Δpem2Δ S. cerevisiae, considering the growth rate of untreated PMT- or LacZ- complemented Pem1Δpem2Δ S. cerevisiae is 100%; the growth rate = ΔA600^Day 3/ΔA600^Day 0; ΔA600^Day 0 is the absolute value of A600 of PMT- or LacZ- complemented pem1Δ/pem2Δ S. cerevisiae at day 0, which equals the A600 of the culture minus the A600 of the growth medium only; ΔA600^Day 3 is the absolute value of the A600 of PMT- or LacZ complemented pem1Δ/pem2Δ S. cerevisiae at day 3, which equals the A600 of the culture at day 3 minus the A600 of growth medium only; the growth rate (plus inhibitor) is the growth rate of PMT- or -LacZ complemented pem1Δpem2Δ S. cerevisiae in the presence of test compound; and the growth rate (minus inhibitor) is the growth rate of the PMT- or LacZ complemented pem1Δ/pem2Δ S. cerevisiae in the absence of test compound, but with a volume of DMSO equal to that of compound added in the treated culture. The dose-response curves were generated with GraphPad Prism software and IC50 concentrations of the compounds in PMT- and LacZ-complemented yeast cells derived.

[2] = system: LacZ-complemented pem1Δ/pem2Δ S. cerevisiae; assay: Growth inhibition of complemented yeast; format: cell-based, Saccharomyces cerevisiae; settings: medium with choline
Procedure: as §4

[3] = substrate: C[S+](CC[C@H](N)C(=O)[O-])C[C@H]1O[C@@H](n2cnc3c(N)ncnc32)[C@H](O)[C@@H]1O; assay: PMT enzyme kinetics, fluorescence methyltransferase assay; format: biochemical, Haemonchus contortus; settings: other: on S-adenosyl-L-methionine
Procedure: as §1
(§5) To determine the enzyme kinetic parameters on SAM, fixed concentrations of PMT recombinant proteins (between 15 and 100 ng/μL, depending on the derived optimal concentration) and PE (200 μM) were used in the reactions, with various concentrations of SAM (0 to 160 μM). […]
as §3, with “The reactions were prepared in triplicate wells using black flat-bottomed 96-well plates. Detection buffer (100 μL) was added into each reaction, yielding a final reaction volume of 150 μL.” left out

[4] = substrate: C[S+](CC[C@H](N)C(=O)[O-])C[C@H]1O[C@@H](n2cnc3c(N)ncnc32)[C@H](O)[C@@H]1O; assay: as above; format: biochemical, Ancylostoma duodenale; settings: other: on S-adenosyl-L-methionine
Procedure: as §1, §5
as §3, with “The reactions were prepared in triplicate wells using black flat-bottomed 96-well plates. Detection buffer (100 μL) was added into each reaction, yielding a final reaction volume of 150 μL.” left out

[5] = substrate: C[S+](CC[C@H](N)C(=O)[O-])C[C@H]1O[C@@H](n2cnc3c(N)ncnc32)[C@H](O)[C@@H]1O; assay: as above; format: biochemical, Dictyocaulus viviparus; settings: other: on S-adenosyl-L-methionine
Procedure: as §1, §2, §3

[6] = substrate: C[S+](CC[C@H](N)C(=O)[O-])C[C@H]1O[C@@H](n2cnc3c(N)ncnc32)[C@H](O)[C@@H]1O; assay: as above; format: biochemical, Oesophagostomum dentatum; settings: other: on S-adenosyl-L-methionine
Procedure: as §1, §2, §3

[7] = substrate: C[S+](CC[C@H](N)C(=O)[O-])C[C@H]1O[C@@H](n2cnc3c(N)ncnc32)[C@H](O)[C@@H]1O; assay: as above; format: biochemical, Toxocara canis; settings: other: on S-adenosyl-L-methionine
Procedure: as §1, §2, §3

Chain of AsPMT (F1L4B9 entry or part of it): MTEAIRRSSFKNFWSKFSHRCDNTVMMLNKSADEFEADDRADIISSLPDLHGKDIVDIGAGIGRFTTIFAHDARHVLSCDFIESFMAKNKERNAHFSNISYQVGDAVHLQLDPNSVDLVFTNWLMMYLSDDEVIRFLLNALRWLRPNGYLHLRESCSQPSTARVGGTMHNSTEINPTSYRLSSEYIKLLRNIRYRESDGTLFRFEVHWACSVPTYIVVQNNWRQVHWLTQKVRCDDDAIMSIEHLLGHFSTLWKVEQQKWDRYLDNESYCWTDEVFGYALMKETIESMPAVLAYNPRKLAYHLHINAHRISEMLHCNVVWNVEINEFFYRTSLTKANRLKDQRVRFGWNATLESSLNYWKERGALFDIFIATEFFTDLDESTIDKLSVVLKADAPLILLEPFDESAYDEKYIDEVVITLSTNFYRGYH

NCCOP(=O)(O)O [phosphoethanolamine]
Km (OdPMT): 81 ± 12.8 µM | kcat (OdPMT): 5.5833 ± 0.3603 s⁻¹ | Km (AsPMT): 99.9 ± 36.6 µM | kcat (AsPMT): 3.2383 ± 0.49 s⁻¹ | Km (TcPMT): 85 ± 77.8 µM | kcat (TcPMT): 10.412 ± 3.6983 s⁻¹ | Km (DvPMT1): 308 ± 41.7 µM | kcat (DvPMT1): 16.113 ± 1.61 s⁻¹ | kcat (AcPMT1): 7,071.00 ± 1,141.00 min^−1 | Km (HcPMT1): 73.4 ± 54.9 µM | kcat (HcPMT1): 1,066.30 ± 72.70 min^−1

CC[C@H]1NC(=O)[C@@H](NC(=O)c2ncccc2O)[C@@H](C)OC(=O)[C@H](c2ccccc2)NC(=O)[C@@H]2CC(=O)CCN2C(=O)[C@H](Cc2ccccc2)N(C)C(=O)[C@@H]2CCCN2C1=O [NSC177858]
effect on the growth of PMT-complemented mutant yeast [1]: concentration-dependent inhibitory effect | effect on LacZ-expressing mutant yeast [2]: no or negligible inhibitory effect

B1: HcPMT1 (Haemonchus contortus) (protein)
chain: MTAEVRRDSFKTFWDKYSDKPDTNSMMLNQTAQDLEASDRADILSSLPHLTNKDVVDIGAGIGRFTTVLAETARWVLSTDFIESFIEKNQERNAHMGNISYQIGDAVHLQMDEKSVDLVFTNWLMMYLSDREVIEFLLNAMRWLRADGYIHLRESCSEPSTGRLKTATMHSAVDANPTHYRFSSLYIKLLRAIRYRDSDGKMWKFDVQWSCSVPTYIRRCNNWRQVHWLTKKVPAVGDEETSVDDLLNLFSQIWPAEQKTWDEKLDNEKYSWTDKIFSNAIDDEVVPKNSTAYVFTPRQRSPFLHVNSHLLAEKFTCNVWNVETKEYLYRTSLTKANNQKDQRVRFGWNESLSSSIDYWNQRDASFDCMVATELLATCDDESINSIASIMKPEAKVVLLEPVSGIDETSVRQRMTTCGFKNITIVDVTQESLNAEVSFIKDHNLDVELSGCNYLLIKASL
Km [3]: 18.34 ± 3.80 µM | kcat/Km [3]: 3.91e+06 M⁻¹ s⁻¹

B2: AcPMT1 (Ancylostoma duodenale) (protein)
chain: MEERSVDLVFTNWLMMYLSDREVIEFLFNAMRWLRADGYMHLRESCSEPSTGRAKSSTMHSNTDSNPTHYRFSSLYIKLLRAIRYRDNDGKVWRFDVQWSCSVPTYIKRSNNWRQVHWLTKKVSADGDDETTINDLLKLFSQTWYTEQVAWDAKLDNEKYVWTDKIFSNAIDNEVVPKNSTAYVFTPRKMSPYLHINSHLLAEKFTCNVWNVEMNENFYRTSLTKANNQKDQRVRFGWNESLASSIDYWTQRDASFDCLIGTELLSTNGDESIKRIASIMKPEAKIVLLEPVDDVAEQAIKERMASCGFKNISVVDVTEECKAAEAAYANDHNLAFLFIEL
Km [4]: 27.33 ± 3.58 µM | kcat/Km [4]: 1.98e+06 M⁻¹ s⁻¹

B3: DvPMT1 (Dictyocaulus viviparus) (protein)
chain: MSQGMRHADAVIYGEYDNGRRMKENELKGEHIKNYRTTYDENSFNNTMAVEVRRDLFKTFWDRYSDKPDTNSMMLNHTANDLDASDRADILSSLPHLGNKDVVDIGAGIGRFTTVLANTARWVHSTDFIESFIAKNQERNAHLGNISYQIGDAVNLQMNERSVDLVFTNWLMMYLSDHEVIEFLFNAMRWLRPDGYLHLRESCSEPSTACSKTATMHSSAEANPTHYRFSSLYIKLLRTIRYRDNSGKLWKFDVQWSCSVPTYIQRSNNWRQVHWLTRKVPANNGDTDTSISLLLNLFSQIWPAEQVEWDLKLNIESYVWTDRVFSNAINDEVVPRNGTALVFTPRKRSPYLHVNSHLLAEKFTCNVWTVETNEYYYRTSLTKANHEKNHRVRFGWNESLTSSIDYWSQRDASFDCLISTELLSTNSDDEIKRITRMIGCGFKHVNILDVTNDSRTAEVMFYSEHSINAEPLGCTFLLISATL
Km [5]: 35.02 ± 5.05 µM | Vmax [5]: 0.445 µmol/min/mg | kcat [5]: 3.96 ± 0.214 s⁻¹ | kcat/Km [5]: 113000 M⁻¹ s⁻¹

B4: OdPMT (Oesophagostomum dentatum) (protein)
chain: MIFQKRFTTVLAETARWVHSTDFIESFIAKNQERNAHLGNISYQIGDAVHLQMDEKSVDLVFTNWLMMYLSDREVIEFLFNAMRWLRADGYMHLRESCSEPSTGRSKSATMHTSAEANPTHYRFSSLYIKLLRALRYQDSDGKVWRFDVQWSCSVPTYIRFFSETWRAEQIAWDAKLDKEQYVWTDKIFSNVLDSAVVPKNSTAYVFTPRRRSPYLHVNSHLLADKFTCNVWNVELNENFYRTSLTKANNQKDQRVRFGWNETLASSIDYWTQRDGSFDCLIATELLSTSDDESIKSIASIMKPEAKCVLLEPVDEVNEAVIKARMSSCGFKNVSVMDVTEDCKAAEAAYASDHNLQIDPSNCSYVLINASL
Km [6]: 48.95 ± 7.07 µM | Vmax [6]: 3.13 ± 0.204 µmol/min/mg | kcat [6]: 45.4 ± 2.96 s⁻¹ | kcat/Km [6]: 927000 M⁻¹ s⁻¹

B5: TcPMT (Toxocara canis) (protein)
chain: MPRLNQKAKTFRDFLDTTQYTDEGIRAYEWIFGENFISPGGYNENLLVLKRLGELKPDSRMLDIGVGIGGGARQAAKEFGLLVLGIDISANMLSIAMDRLQVEKDTRIRYQICNAVDYQFPSNSFDYIVSRDGLHHNEHIDIVMKNIFKWLKPGGKALITIYGKGHGAPKTKFQAYVENRKYHLKTLEQMVQVTKDAGFENVQGTNLTKRLRDILIEERTRALARKGRFLEDFSEETFNSLLEGWNDKIDFIDDDNQTWLQIIATKPL
Km [7]: 20.31 ± 2.23 µM | Vmax [7]: 1.08 ± 0.0324 µmol/min/mg | kcat [7]: 10.9 ± 0.327 s⁻¹ | kcat/Km [7]: 539000 M⁻¹ s⁻¹
